According to publication PMC5620080, “The cryo-EM structure of hibernating 100S ribosome dimer from pathogenic Staphylococcus aureus” (Nature Communications, 2017):

B1: S. aureus hibernating promoting factor (HPFSA), full length, in the native 100S ribosome (natural protein, UniProt Q2FIN9 1-190, looked up)
chain: MIRFEIHGDNLTITDAIRNYIEEKIGKLERYFNDVPNAVAHVKVKTYSNSATKIEVTIPLKNVTLRAEERNDDLYAGIDLINNKLERQVRKYKTRINRKSRDRGDQEVFVAELQEMQETQVDNDAYDDNEIEIIRSKEFSLKPMDSEEAVLQMNLLGHDFFVFTDRETDGTSIVYRRKDGKYGLIQTSEQ
notes: hibernating promoting factor (HPF), Staphylococcus aureus JE2 (USA300), full-length hpf under its native promoter; residues 1-190; first 100 residues modelled, C-terminal domain fitted as a homology model; Two copies in the 100S dimer, one for each 70S; also called long HPF; N-HPFSA (N-terminal domain); source: S. aureus hpf-knockout strain (USA300, JE2) with plasmid pLI50hpf; isolated with the …
B2: recombinant His-tagged full-length HPF (HPFSA) (natural protein, S. aureus, UniProt Q2FIN9 1-190, looked up)
chain: B1 chain
notes: hibernating promoting factor (HPF), Staphylococcus aureus, full length; also called full-length HPFSA protein; source: E. coli BL21(DE3), pET28a, purified

How the values were obtained:
[1] = target: the molecule itself; assay: cryo-EM structure; native 100S ribosome dimers purified from S. aureus; 6.8 Å map of the 100S, 6.7 Å focused map of the dimer interface (C2 symmetry), 3.2 Å masked 30S map
[2] = target: the molecule itself; assay: SEC; Superdex-200 Increase 10/300 GL; 20 mM Tris pH 7.9, 20 mM MgCl2, 250 mM NH4Cl, 10 mM KCl; 0.5 ml/min; 50 µg of purified HPFSA protein; apparent molecular weights from a standard curve

Protein	binding result [1]	binding result [2]
B1	binds	–
B2	–	binds
